± gives the uncertainty stated by the source.
B1: Mineralocorticoid receptor, residues 600 to 675; numbered along this chain, P08235 (parent)
chain: SKICLVCGDEASGCHYGVVTCGSCKVFFKRAVEGQHNYLCAGRNDCIIDKIRRKNCPACRLQKCLQAGMNLGARKS

Variants of: B1
Assay: abundance fitness (aPCA) (normalised: wild type 0, dead -1); higher = more abundant; growth selection in yeast, the domain comes from the species named
Settings: Homo sapiens

**Q.** For SKICLVCGDEASGCHYGVVTCGSCKVFFKRAVEGQHNYLCAGRNDCIIDKFRRKNCPACRLQKCLQAGMNLGARKS [I51F], which abundance fitness is on record?
**A.** -0.076 ± 0.077

**Q.** For SKICLVCGDEASGCHYGVVTCGSCKVFFKRAVEGQHNYLCAGRNDCIIDKGRRKNCPACRLQKCLQAGMNLGARKS [I51G], which abundance fitness is on record?
**A.** -0.016 ± 0.043

**Q.** For SKICLVCGDEASGCHYGVVTCGSCKVFFKRAVEGQHNYLCAGRNDCIIDKHRRKNCPACRLQKCLQAGMNLGARKS [I51H], which abundance fitness is on record?
**A.** 0.062 ± 0.092

**Q.** Which abundance fitness does the source give for SKICLVCGDEASGCHYGVVTCGSCKVFFKRAVEGQHNYLCAGRNDCIIDKKRRKNCPACRLQKCLQAGMNLGARKS [I51K] here?
**A.** -0.093 ± 0.051

**Q.** With SKICLVCGDEASGCHYGVVTCGSCKVFFKRAVEGQHNYLCAGRNDCIIDKLRRKNCPACRLQKCLQAGMNLGARKS [I51L] as the variant, how does the abundance fitness read?
**A.** 0.018 ± 0.056

**Q.** For SKICLVCGDEASGCHYGVVTCGSCKVFFKRAVEGQHNYLCAGRNDCIIDKMRRKNCPACRLQKCLQAGMNLGARKS [I51M], which abundance fitness is on record?
**A.** 0.024 ± 0.11

**Q.** Which abundance fitness does the source give for SKICLVCGDEASGCHYGVVTCGSCKVFFKRAVEGQHNYLCAGRNDCIIDKNRRKNCPACRLQKCLQAGMNLGARKS [I51N] here?
**A.** -0.108 ± 0.068

**Q.** With SKICLVCGDEASGCHYGVVTCGSCKVFFKRAVEGQHNYLCAGRNDCIIDKPRRKNCPACRLQKCLQAGMNLGARKS [I51P] as the variant, how does the abundance fitness read?
**A.** -0.137 ± 0.066

**Q.** With SKICLVCGDEASGCHYGVVTCGSCKVFFKRAVEGQHNYLCAGRNDCIIDKQRRKNCPACRLQKCLQAGMNLGARKS [I51Q] as the variant, how does the abundance fitness read?
**A.** 0.095 ± 0.076

**Q.** With SKICLVCGDEASGCHYGVVTCGSCKVFFKRAVEGQHNYLCAGRNDCIIDKRRRKNCPACRLQKCLQAGMNLGARKS [I51R] as the variant, how does the abundance fitness read?
**A.** -0.018 ± 0.042

**Q.** With SKICLVCGDEASGCHYGVVTCGSCKVFFKRAVEGQHNYLCAGRNDCIIDKSRRKNCPACRLQKCLQAGMNLGARKS [I51S] as the variant, how does the abundance fitness read?
**A.** 0.003 ± 0.042

**Q.** For SKICLVCGDEASGCHYGVVTCGSCKVFFKRAVEGQHNYLCAGRNDCIIDKVRRKNCPACRLQKCLQAGMNLGARKS [I51V], which abundance fitness is on record?
**A.** 0.085 ± 0.055

**Q.** With SKICLVCGDEASGCHYGVVTCGSCKVFFKRAVEGQHNYLCAGRNDCIIDKWRRKNCPACRLQKCLQAGMNLGARKS [I51W] as the variant, how does the abundance fitness read?
**A.** -0.164 ± 0.066

**Q.** Which abundance fitness does the source give for SKICLVCGDEASGCHYGVVTCGSCKVFFKRAVEGQHNYLCAGRNDCIIDKYRRKNCPACRLQKCLQAGMNLGARKS [I51Y] here?
**A.** 0.048 ± 0.088

**Q.** With SKICLVCGDEASGCHYGVVTCGSCKVFFKRAVEGQHNYLCAGRNDCIIDKIARKNCPACRLQKCLQAGMNLGARKS [R52A] as the variant, how does the abundance fitness read?
**A.** -0.034 ± 0.043

**Q.** With SKICLVCGDEASGCHYGVVTCGSCKVFFKRAVEGQHNYLCAGRNDCIIDKICRKNCPACRLQKCLQAGMNLGARKS [R52C] as the variant, how does the abundance fitness read?
**A.** -0.043 ± 0.065

**Q.** For SKICLVCGDEASGCHYGVVTCGSCKVFFKRAVEGQHNYLCAGRNDCIIDKIDRKNCPACRLQKCLQAGMNLGARKS [R52D], which abundance fitness is on record?
**A.** -0.072 ± 0.092

**Q.** Which abundance fitness does the source give for SKICLVCGDEASGCHYGVVTCGSCKVFFKRAVEGQHNYLCAGRNDCIIDKIFRKNCPACRLQKCLQAGMNLGARKS [R52F] here?
**A.** -0.14 ± 0.097

**Q.** For SKICLVCGDEASGCHYGVVTCGSCKVFFKRAVEGQHNYLCAGRNDCIIDKIGRKNCPACRLQKCLQAGMNLGARKS [R52G], which abundance fitness is on record?
**A.** -0.027 ± 0.039

**Q.** With SKICLVCGDEASGCHYGVVTCGSCKVFFKRAVEGQHNYLCAGRNDCIIDKIHRKNCPACRLQKCLQAGMNLGARKS [R52H] as the variant, how does the abundance fitness read?
**A.** -0.055 ± 0.11

**Q.** With SKICLVCGDEASGCHYGVVTCGSCKVFFKRAVEGQHNYLCAGRNDCIIDKIIRKNCPACRLQKCLQAGMNLGARKS [R52I] as the variant, how does the abundance fitness read?
**A.** 0.049 ± 0.069

**Q.** For SKICLVCGDEASGCHYGVVTCGSCKVFFKRAVEGQHNYLCAGRNDCIIDKIKRKNCPACRLQKCLQAGMNLGARKS [R52K], which abundance fitness is on record?
**A.** -0.056 ± 0.075

**Q.** With SKICLVCGDEASGCHYGVVTCGSCKVFFKRAVEGQHNYLCAGRNDCIIDKILRKNCPACRLQKCLQAGMNLGARKS [R52L] as the variant, how does the abundance fitness read?
**A.** -0.149 ± 0.062

**Q.** With SKICLVCGDEASGCHYGVVTCGSCKVFFKRAVEGQHNYLCAGRNDCIIDKIMRKNCPACRLQKCLQAGMNLGARKS [R52M] as the variant, how does the abundance fitness read?
**A.** -0.131 ± 0.1

**Q.** With SKICLVCGDEASGCHYGVVTCGSCKVFFKRAVEGQHNYLCAGRNDCIIDKIPRKNCPACRLQKCLQAGMNLGARKS [R52P] as the variant, how does the abundance fitness read?
**A.** -0.081 ± 0.06

**Q.** Which abundance fitness does the source give for SKICLVCGDEASGCHYGVVTCGSCKVFFKRAVEGQHNYLCAGRNDCIIDKIQRKNCPACRLQKCLQAGMNLGARKS [R52Q] here?
**A.** 0.027 ± 0.059

**Q.** Which abundance fitness does the source give for SKICLVCGDEASGCHYGVVTCGSCKVFFKRAVEGQHNYLCAGRNDCIIDKISRKNCPACRLQKCLQAGMNLGARKS [R52S] here?
**A.** -0.04 ± 0.043

**Q.** Which abundance fitness does the source give for SKICLVCGDEASGCHYGVVTCGSCKVFFKRAVEGQHNYLCAGRNDCIIDKITRKNCPACRLQKCLQAGMNLGARKS [R52T] here?
**A.** -0.04 ± 0.054

**Q.** For SKICLVCGDEASGCHYGVVTCGSCKVFFKRAVEGQHNYLCAGRNDCIIDKIVRKNCPACRLQKCLQAGMNLGARKS [R52V], which abundance fitness is on record?
**A.** -0.114 ± 0.057

**Q.** For SKICLVCGDEASGCHYGVVTCGSCKVFFKRAVEGQHNYLCAGRNDCIIDKIWRKNCPACRLQKCLQAGMNLGARKS [R52W], which abundance fitness is on record?
**A.** -0.052 ± 0.057

**Q.** With SKICLVCGDEASGCHYGVVTCGSCKVFFKRAVEGQHNYLCAGRNDCIIDKIYRKNCPACRLQKCLQAGMNLGARKS [R52Y] as the variant, how does the abundance fitness read?
**A.** -0.234 ± 0.11

**Q.** With SKICLVCGDEASGCHYGVVTCGSCKVFFKRAVEGQHNYLCAGRNDCIIDKIRCKNCPACRLQKCLQAGMNLGARKS [R53C] as the variant, how does the abundance fitness read?
**A.** -0.159 ± 0.15

**Q.** For SKICLVCGDEASGCHYGVVTCGSCKVFFKRAVEGQHNYLCAGRNDCIIDKIRDKNCPACRLQKCLQAGMNLGARKS [R53D], which abundance fitness is on record?
**A.** -0.024 ± 0.35

**Q.** For SKICLVCGDEASGCHYGVVTCGSCKVFFKRAVEGQHNYLCAGRNDCIIDKIREKNCPACRLQKCLQAGMNLGARKS [R53E], which abundance fitness is on record?
**A.** 0.087 ± 0.056

**Q.** Which abundance fitness does the source give for SKICLVCGDEASGCHYGVVTCGSCKVFFKRAVEGQHNYLCAGRNDCIIDKIRFKNCPACRLQKCLQAGMNLGARKS [R53F] here?
**A.** -0.056 ± 0.19

**Q.** Which abundance fitness does the source give for SKICLVCGDEASGCHYGVVTCGSCKVFFKRAVEGQHNYLCAGRNDCIIDKIRGKNCPACRLQKCLQAGMNLGARKS [R53G] here?
**A.** -0.045 ± 0.043
